# Measured values published in patent US20030147847A1 (IMMUNEX, published 2003).
# T1: NKG2D/Dap10 on transfected 293E cells (UniProt P26718 1-216; Q9UBK5 19-93)
# T1 construct: whole, on cells; Co-expressed on 293 EBNA (293E) cells from the pDC409 vector; also called NKG2D+FLAG tagged Dap10
# T1 sequence 1: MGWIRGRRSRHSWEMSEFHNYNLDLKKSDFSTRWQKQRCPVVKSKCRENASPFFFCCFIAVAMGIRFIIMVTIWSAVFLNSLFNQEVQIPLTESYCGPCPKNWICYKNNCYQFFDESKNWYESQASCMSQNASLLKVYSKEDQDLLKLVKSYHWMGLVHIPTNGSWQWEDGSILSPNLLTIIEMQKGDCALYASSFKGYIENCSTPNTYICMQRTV
# T1 sequence 2: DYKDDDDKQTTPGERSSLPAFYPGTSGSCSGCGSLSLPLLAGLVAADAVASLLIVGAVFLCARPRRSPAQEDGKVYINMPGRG
# T2: Full length UL16 on transfected 293 EBNA cells (human cytomegalovirus, UniProt P16757 27-230)
# T2 construct: whole, on cells; also called UL16 FL
# T2 sequence: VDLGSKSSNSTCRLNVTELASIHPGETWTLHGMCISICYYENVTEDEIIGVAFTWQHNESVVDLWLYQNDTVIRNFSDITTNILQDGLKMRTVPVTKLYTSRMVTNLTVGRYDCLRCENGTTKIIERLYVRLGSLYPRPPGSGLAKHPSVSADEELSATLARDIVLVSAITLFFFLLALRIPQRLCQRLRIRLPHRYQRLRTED
# T3: FLAG tagged Dap10 alone on transfected 293 EBNA cells (UniProt Q9UBK5 19-93)
# T3 construct: whole, on cells
# T3 sequence: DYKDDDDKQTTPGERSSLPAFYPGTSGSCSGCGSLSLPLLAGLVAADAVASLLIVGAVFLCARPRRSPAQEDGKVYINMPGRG
# T4: NKG2D alone on transfected 293 EBNA cells (UniProt P26718 1-216, limits assumed)
# T4 construct: whole, on cells
# T4 sequence (looked up): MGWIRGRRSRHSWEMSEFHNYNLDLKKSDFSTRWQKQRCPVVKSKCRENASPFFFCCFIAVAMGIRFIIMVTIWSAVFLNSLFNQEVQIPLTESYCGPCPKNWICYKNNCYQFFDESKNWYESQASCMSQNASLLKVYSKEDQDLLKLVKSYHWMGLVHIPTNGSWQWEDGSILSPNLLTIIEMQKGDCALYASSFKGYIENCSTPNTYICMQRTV
# Key:
# [1] = target: T1, NKG2D/Dap10 on transfected 293E cells; assay: flow cytometry; NKG2D/Dap10-transfected 293E cells preincubated with 25 µg ULBP1/LZ (competitor)
# [2] = target: T1, NKG2D/Dap10 on transfected 293E cells; assay: flow cytometry; NKG2D/Dap10-transfected 293E cells preincubated with 25 µg hCD40L/LZ (control blocking protein)
# [3] = target: T2, Full length UL16 on transfected 293 …; assay: flow cytometry on 293 EBNA cells transfected with full length UL16
# [4] = target: T2, Full length UL16 on transfected 293 …; assay: flow cytometry, transfected 293 EBNA cells, 2 µg Fc protein + goat anti-human IgG PE
# [5] = target: T3, FLAG tagged Dap10 alone on transfected …; assay: as above
# [6] = target: T4, NKG2D alone on transfected 293 EBNA …; assay: as above
# [7] = target: T1, NKG2D/Dap10 on transfected 293E cells; assay: as above
binder,measurement,setting,value
"ULBP3/Fc (Fc fusion, That entry lacks the first five residues of the leader and still holds the rest of the signal peptide and the GPI signal; not shown: Fc portion of ULBP3/Fc is not described) DAHSLWYNFTIIHLPRHGQQWCEVQSQVDQKNFLSYDCGSDKVLSMGHLEEQLYATDAWGKQLEMLREVGQRLRLELADTELEDFTPSGPLTLQVRMSCECEADGYIRGSWQFSFDGRKFLLFDSNNRKWTVVHAGARRMKEKWEKDSGLTTFFKMVSMRDCKSWLRDFLMHRKKRLEPTAPPTMAPG",Mean Fluorescence Intensity (MFI),[1],13 MFI
same,Mean Fluorescence Intensity (MFI),[2],267 MFI
same,binding result,[3],no binding (tested: 2 µg)
same,Mean Fluorescence Intensity (MFI),[4],11.9 MFI
same,Mean Fluorescence Intensity (MFI),[5],14 MFI
same,Mean Fluorescence Intensity (MFI),[6],9.55 MFI
same,Mean Fluorescence Intensity (MFI),[7],102 MFI
